We go through eight molecules from PMC314469, “Protein Interaction Networks by Proteome Peptide Scanning” (PLoS Biology, 2004).

Common to all, as to test: SPOT array
Assay [1] addresses T1, Yfr024 SH3 (LSB3_YEAST), P43603.
T1 chain: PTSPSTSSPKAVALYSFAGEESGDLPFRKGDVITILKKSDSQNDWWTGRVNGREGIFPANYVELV

For assay [2], the target named is T2, Boi2 SH3 (BOI2_YEAST), P39969.
T2 chain: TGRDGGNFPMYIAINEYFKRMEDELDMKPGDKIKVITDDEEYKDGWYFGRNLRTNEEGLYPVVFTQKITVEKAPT

Assay [3] deals with T3, Boi1 SH3 (BOI1_YEAST), P38041.
T3 chain: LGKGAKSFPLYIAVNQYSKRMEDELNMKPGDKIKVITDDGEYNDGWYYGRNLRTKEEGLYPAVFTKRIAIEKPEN

Assay [4] has as its target T4, Yhr016c SH3 (YSC84_YEAST), P32793.
T4 chain: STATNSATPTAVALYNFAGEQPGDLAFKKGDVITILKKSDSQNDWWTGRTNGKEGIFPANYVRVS

The target in assay [5] is T5, Rvs167 SH3 (RV167_YEAST), P39743.
T5 chain: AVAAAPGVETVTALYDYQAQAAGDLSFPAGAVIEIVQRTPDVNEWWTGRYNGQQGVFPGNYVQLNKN

B1: YPL057C 43-56 (peptide)
chain: DLNPDAPPKPQLIP
With B1, the normalised SPOT signal, Boehringer light units (BLU); mean over the file's lines of this peptide is 88.2 in assay [1]; 41.5 in assay [2]; 96.1 in assay [3]; 65.9 in assay [4]; 11 in assay [5].

B2: YPL175W 432-445 (peptide)
chain: DLAPKWPKKTVSNE
On to B2, for which the normalised SPOT signal, Boehringer light units (BLU); mean over the file's lines of this peptide is 1590 in assay [1]; 14.6 in assay [2]; 48.2 in assay [3]; 110 in assay [4]; 7.2 in assay [5].

B3: YOR335C 774-787 (peptide)
chain: DKLPFSPIKEKKLK
With B3, the normalised SPOT signal, Boehringer light units (BLU); mean over the file's lines of this peptide in assay [1] was found to be 64.1; in assay [2] it was 39.8; in assay [3], 466; in assay [4], 156; in assay [5], 118.

B4: YBL007C 805-818 (peptide)
chain: DLQPLEPKKAAAST
Regarding B4, the normalised SPOT signal, Boehringer light units (BLU); mean over the file's lines of this peptide was 37.7 in assay [1]; 104 in assay [2]; 121 in assay [3]; 0 in assay [4]; 30.3 in assay [5].

B5: YNL284C-B 1135-1148 (peptide)
chain: DLPPEPPTKLSDSF
Regarding B5, the normalised SPOT signal, Boehringer light units (BLU); mean over the file's lines of this peptide in assay [1] stood at 56.5; in assay [2], 30.6; in assay [3], 75; in assay [4] it was 105; in assay [5] it was 30.9.

B6: YDR444W 186-199 (peptide)
chain: DLPPKFPEKPVHLV
For B6, the normalised SPOT signal, Boehringer light units (BLU); mean over the file's lines of this peptide in assay [1] turned out to be 10300; in assay [2] it was 25.7; in assay [3], 0; in assay [4] it was 183; in assay [5], 90.9.

B7: YJL127C 172-185 (peptide)
chain: DLKPAYPGRSAHVV
For the molecule B7, the normalised SPOT signal, Boehringer light units (BLU); mean over the file's lines of this peptide turned out to be 8830 in assay [1]; 77.4 in assay [2]; 20.7 in assay [3]; 1390 in assay [4]; 31.5 in assay [5].

B8: YNL134C 130-143 (peptide)
chain: DKLPEGPVKSLEGA
In the case of B8, the normalised SPOT signal, Boehringer light units (BLU); mean over the file's lines of this peptide in assay [1] was determined as 87.8; in assay [2] it was 73.3; in assay [3], 35.5; in assay [4], 89.5; in assay [5], 55.7.
